Oligonucleotides are written 5' to 3', each unit as a sugar letter and its base; * is a phosphorothioate linkage, no mark a phosphodiester; rarer units and linkages stand in square brackets, end groups in braces. Plain capitals give the bases only. r = 2'-OH (RNA); f = 2'-fluoro
What was measured:
[1] = molecular target: T1, chymase (recombinant, manufactured by SIGMA) (Homo sapiens, UniProt P23946); assay: Chymase inhibitory activity using synthetic substrate Suc-Ala-Ala-Pro-Phe-MCA; assay type: biochemical; settings: Table 3; substrate 100 μM, solution C, 37° C.; mean value for 2 to 3 measurements
T1 construct: purchased SIGMA; host or cells: yeast
T1 sequence (P23946 22-247): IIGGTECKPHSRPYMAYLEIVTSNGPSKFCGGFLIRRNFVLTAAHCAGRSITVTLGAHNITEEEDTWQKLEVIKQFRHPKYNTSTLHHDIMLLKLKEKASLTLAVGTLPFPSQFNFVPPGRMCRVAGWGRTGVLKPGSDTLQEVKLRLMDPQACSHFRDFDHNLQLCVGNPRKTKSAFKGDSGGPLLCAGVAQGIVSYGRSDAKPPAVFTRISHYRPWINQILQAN
Protocol: A first method employs a synthetic substrate. A useful chymase substrate is Suc-Ala-Ala-Pro-Phe-MCA (4-methylcoumaryl-7-amide group) (manufactured by Peptide Institute, Inc.), which contains the 4-amino acid peptide “Ala-Ala-Pro-Phe”, a standard substrate for chymotrypsin-like proteases.
The assay is performed using a 96-well plate (F16 Black Maxisorp Fluoronunc, manufactured by Nunc), with a reaction mixture volume of 100 μL, in a buffer solution (solution C; see Example 2 below). First, each nucleic acid is prepared in solution C to obtain 50 μL solutions. After 10 μL of the 1 mM substrate prepared in solution C is added, the plate is set to the microplate reader SpectraMax190 (manufactured by Molecular Devices Corporation), and incubated at 37° C. for 5 minutes. Separately, 0.05 μg of chymase (recombinant, manufactured by SIGMA) is diluted in solution C, and 40 μL of this dilution is incubated at 37° C. for 5 minutes. The chymase solution is added to the mixture of the nucleic acid and substrate to initiate an enzyme reaction. The plate containing the reaction mixture is set to the microplate reader SpectraMax190 (manufactured by Molecular Devices Corporation), and examined for time-dependent changes in the fluorescence intensity at 37° C. for 5 minutes (excitation wavelength 380 nm, detection wavelength 460 nm). A linear approximation of the increase in the fluorescence of the AMC (7-amino-4-methylcoumarine) released from the substrate by chymase activity is generated, and its slope is taken as the initial reaction velocity. For control, samples are treated and analyzed in the same manner in two cases: use of a nucleic acid pool containing a random sequence of 30 or 40 nucleotides (negative control), and use of chymostatin, a known chymotrypsin-like serine protease inhibitor (positive control). Taking the initial reaction velocity without the nucleic acid and inhibitor as a 100% enzyme activity, the inhibitory rate for each test substance is calculated, and the inhibitor concentration required to cause a 50% inhibition of the enzyme activity (IC50) is determined.
Whether the nucleic acids shown by SEQ ID NO: 4-20, 22-34, and 38-48 inhibit the enzyme activity of chymase was determined as described below. The chymase substrate used was Suc-Ala-Ala-Pro-Phe-MCA (manufactured by Peptide Institute, Inc.), which contains the 4-amino-acid peptide Ala-Ala-Pro-Phe, a standard substrate for chymotrypsin-like proteases. Here, Suc is a protecting succinyl group, and MCA is a 4-methylcoumaryl-7-amide group; upon cleavage of the C-terminal side of phenylalanine, AMC (7-amino-4-methylcoumarine) is released. By detecting the fluorescence of this AMC, the enzyme activity of chymase can be determined. The assay was performed using a 96-well plate (F16 Black Maxisorp Fluoronunc, manufactured by Nunc), with a reaction mixture volume of 100 μL, in solution C as a buffer solution. First, each nucleic acid was serially diluted to 0.0027-2 μM concentrations in solution C to obtain 50 μL solutions. After 10 μL of the 1 mM substrate prepared in solution C was added thereto, the plate was set to the microplate reader SpectraMax190 (manufactured by Molecular Devices Corporation), and incubated at 37° C. for 5 minutes. Separately, 0.05 μg (or 0.005 μg) of chymase (recombinant, manufactured by SIGMA) was diluted in solution C to obtain a 40 μL chymase solution, and incubated at 37° C. for 5 minutes. The chymase solution was added to the mixture of the nucleic acid and substrate to initiate an enzyme reaction. The final chymase concentration in the reaction mixture was 16.7 nM (or 1.67 nM), the final substrate concentration being 100 μM. The plate containing the reaction mixture was set to the microplate reader SpectraMax190 (manufactured by Molecular Devices Corporation), and examined for time-dependent changes in the fluorescence intensity at 37° C. for 5 minutes (or 30 minutes) (excitation wavelength 380 nm, detection wavelength 460 nm). […]

chymase [2] = molecular target: T2, chymase (Homo sapiens, UniProt P23946); assay: Surface plasmon resonance (Biacore T100), aptamer immobilized on SA chip, chymase injected as analyte; assay type: binding; parameters: key: ++: a sequence that binds to chymase significantly more strongly than the negative control 40N; +: a sequence that binds to chymase equivalently compared with the negative control 40N; settings: Table 1; about 1000 RU nucleic acid immobilized, chymase 0.2 μM analyte, running buffer solution A; compared with 40N
T2 sequence (P23946 22-247): T1 sequence (P23946 22-247)
Protocol: Binding strength is measured using Biacore T100 (manufactured by GE Healthcare). In a method of measurement, the aptamer is first immobilized onto a sensor chip, the amount immobilized being about 1000 RU. 20 μL of a chymase solution for analyte, prepared at 0.2 μM, is injected, and the binding of chymase to the aptamer is detected. An RNA comprising a random nucleotide sequence of 30 or 40 nucleotides is used as a negative control.
The binding activities against chymase of the nucleic acids shown by SEQ ID NO: 4-20 and 22-34 were determined by the surface plasmon resonance method using Biacore T100 (manufactured by GE Healthcare). The sensor chip used was the SA chip, which had streptavidin immobilized thereon. Bound thereto was about 1500 RU of a 16-nucleotide Poly dT with biotin bound to the 5′ end thereof. […] 20 μL of chymase for analyte, prepared at 0.2 μM, was injected. Solution A was used as a running buffer.
The binding activities against chymase of the nucleic acids shown by SEQ ID NO: 38-48 were evaluated by the surface plasmon resonance method. In the evaluations for SEQ ID NO: 38-48, measurements were taken in the same manner as Example 1. Solution C was used as a running buffer.

chymase [3] = molecular target: T3, chymase (Homo sapiens, UniProt P23946 P23946:22-247); assay: inhibition; Suc-AAPF-MCA, 37 C, solution C; settings: tags: recombinant, expressed in yeast, SIGMA
T3 sequence: T1 sequence (P23946 22-247)
Protocol: Here, Suc is a protecting succinyl group, and MCA is a 4-methylcoumaryl-7-amide group; upon cleavage of the C-terminal side of phenylalanine, AMC (7-amino-4-methyl-coumarine) is released. By detecting the fluorescence of this AMC, the enzyme activity of chymase can be determined. The assay was performed using a 96-well plate (F16 Black Maxisorp Fluoronunc, manufactured by Nunc), with a reaction mixture volume of 100 μL, in solution C as a buffer solution. First, each nucleic acid was serially diluted to 0.0027-2 μM concentrations in solution C to obtain 50 μL solutions. After 10 μL of the 1 mM substrate prepared in solution C was added thereto, the plate was set to the microplate reader SpectraMax190 (manufactured by Molecular Devices Corporation), and incubated at 37° C. for 5 minutes. Separately, 0.05 μg (or 0.005 μg) of chymase (recombinant, manufactured by SIGMA) was diluted in solution C to obtain a 40 μL chymase solution, and incubated at 37° C. for 5 minutes. The chymase solution was added to the mixture of the nucleic acid and substrate to initiate an enzyme reaction. The final chymase concentration in the reaction mixture was 16.7 nM (or 1.67 nM), the final substrate concentration being 100 μM. The plate containing the reaction mixture was set to the microplate reader SpectraMax190 (manufactured by Molecular Devices Corporation), and examined for time-dependent changes in the fluorescence intensity at 37° C. for 5 minutes (or 30 minutes) (excitation wavelength 380 nm, detection wavelength 460 nm). A linear approximation of the increase in the fluorescence of the AMC released from the substrate by chymase activity was generated, and its slope was taken as the initial velocity […]. For control, samples were treated and analyzed in the same manner in two cases: use of a 30N or 40N (a nucleotide of 30 or 40 consecutive bases represented by N; N is A, G, C or T) nucleic acid pool (negative control), and use of chymostatin, a known chymotrypsin-like serine protease inhibitor (positive control). Taking the initial reaction velocity without the nucleic acid and inhibitor (V_0) as a 100% enzyme activity, the inhibitory rate of each test substance was calculated using the following equation: […]
The chymase inhibitory activity was measured in the same manner as in Example 3.

B1: 15 (nucleic acid)
chain: rGrGrGrAfCrGrGfUrArGrGrArAfUfUfCfCfCrArGrArArArAfUrArArAfUfUfCfCrGrArArGrArArArAfCrArAfCrArAfUfUfUfUfUrGfCrArArAfCrAfUrArGrArArGrArGfCrGrGfCfCrGfC
modifications: aptamer
[1]
  IC50: 285 ± 21 nM
Chymase [2]
  Binding activity as determined using Biacore: ++

## GGGUUAGAUAGAGUUAAAAACCC (ssRNA, 2'-F U and C; 2'-OMe 2,3,7,8,10,13,16-20; 5' and 3' idT) [56(40)]
Chymase [3]
  IC50: 51 nM

## GGGUUAGAUAGAGUUAAAAACCC (mixed, 2'-F U and C; 2'-OMe 1-3,10,13,16-20; DNA G7,A8; 5' and 3' idT) [56(52)]
Chymase [3]
  IC50: 52 nM

## GGGUUAGAUAGAGUUAAAAACCC (ssRNA, 2'-F U and C; 2'-OMe 1-3,7,8,10,16,17,19,20) [56(20)]
Chymase [3]
  IC50: 102 nM

## GGGUUAGAUAGAGUUAAAAACCC (mixed, 2'-F U and C; 2'-OMe 1-3,7,10,13,16-20; DNA A6; 5' and 3' idT) [56(49)]
Chymase [3]
  IC50: 69 nM

## GGGTTAGAUAGAGTUAAAAACCC (mixed, 2'-F U; 2'-OMe 1-3,7,8,10,13,17-20; DNA T4,T5,T14,A16,C21-C23; 5' and 3' idT) [72(4)]
Chymase [3]
  IC50: 65 nM

B2: 9 (nucleic acid)
chain: rGrGrGrAfCrGrGfUrArGrGrArAfUfUfCfCfCrGrArArArArGfCrArAfCrArArGfCfUfUrGfCfUrArArArAfUrGrAfUfUfCfCrGrArArArArArAfCrAfCrAfUrArGrArArGrArGfCrGrGfCfCrGfC
[1]
  IC50: 273 ± 69 nM
Chymase [2]
  Binding activity as determined using Biacore: ++

B3: 11 (nucleic acid)
chain: rGrGrGrAfCrGrGfUrArGrGrArAfUfUfCfCfCrGrAfCrAfCrGrArArAfUrGfUrGfUrGrAfUfUrArAfUfUfCfCrGrArAfCrArAfCrArArArGfUrArAfCrAfUrArGrArArGrArGfCrGrGfCfCrGfC
modifications: aptamer
[1]
  IC50: 145 ± 36 nM
Chymase [2]
  Binding activity as determined using Biacore: ++

B4: 8 (nucleic acid)
chain: rGrGrGrAfCrGrGfUrArGrGrArAfUfUfCfUrAfCrGrGfUfCfUrGfUrGfUrGrArArAfUfUrGrArArAfCrAfCrAfCrArArArGrArAfCrArAfUrArArAfCrAfUrArGrArArGrArGfCrGrGfCfCrGfC
modifications: aptamer
[1]
  IC50: 453 ± 463 nM
Chymase [2]
  Binding activity as determined using Biacore: ++

B5: 10 (nucleic acid)
chain: rGrGrGrAfCrGrGfUrArGrGrArAfUfUfCfCrGfCfCrGfCfCfUrArArArArArAfCrGrAfCrGrAfUrAfUfUrAfCrArGrArArAfCrGfUfCrArArAfUrAfCrAfUrArGrArArGrArGfCrGrGfCfCrGfC
modifications: aptamer
[1]
  IC50: > 500 nM
Chymase [2]
  Binding activity as determined using Biacore: ++

## GGGUUAGAUAGAGUUAAAAACCC (ssRNA, 2'-F U and C; 2'-OMe 1-3,10,13,16-20; PS 7-8; 5' and 3' idT) [56(36)]
Chymase [3]
  IC50: 97 nM

## GGGUUAGAUAGAGUUAAAAACCC (ssRNA, 2'-F U and C; 2'-OMe 1-3,10,13,16-20; PS 6-7,7-8; 5' and 3' idT) [56(37)]
Chymase [3]
  IC50: 46 nM

## GGGTTAGAUAGAGTUAAAAACCC (mixed, 2'-F U; 2'-OMe 1-3,7,8,10,16-20; DNA T4,T5,G13,T14,C21-C23; 5' and 3' idT) [72(3)]
Chymase [3]
  IC50: 50 nM

## GGGUUAGAUAGAGUUAAAAACCC (ssRNA, 2'-F U and C; 2'-OMe 2,3,7,8,10,13,16-20; PS 6-7; 5' and 3' idT) [56(41)]
Chymase [3]
  IC50: 53 nM

B6: 12 (nucleic acid)
chain: rGrGrGrAfCrGrGfUrArGrGrArAfUfUfCrGfCfCrGfUfCrArAfCrGfUfUrAfCrAfUrArAfUrGfUrAfUrAfUrAfCfCrArGrGrGfUrArAfCfUrArArAfCrAfUrArGrArArGrArGfCrGrGfCfCrGfC
modifications: aptamer
[1]
  IC50: 128 ± 23 nM
Chymase [2]
  Binding activity as determined using Biacore: ++

## GGGUUAGAUAGAGUUAAAAACCC (ssRNA, 2'-F U and C; 2'-OMe 1-3,19,20; 5' and 3' idT) [56(24)]
Chymase [3]
  IC50: 38 nM

## GGGUUAGAUAGAGUUAAAAACCC (ssRNA, 2'-F U and C; 2'-OMe 2,3,7,8,10,13,16-20; 5' PEG 40 kDa; 3' idT) [56(39)]
Chymase [3]
  IC50: 86 nM

## GGGUUAGAUAGAGUUAAAAACCC (ssRNA, 2'-F U and C; 2'-OMe 7,8,10; 5' and 3' idT) [56(25)]
Chymase [3]
  IC50: 70 nM

Source: US9012420B2, “Aptamer for chymase, and use thereof” (Ribomic Inc., priority 2009, dated 2015)
